“And” between values parts separate entries of the source, which are not always exact repeats. Equal values may be shown once. Read-outs that look alike come from different tables or passages of the source.
How the values were obtained:
[1] = test system: Raoultella ornithinolytica; experiment: MIC by broth microdilution against Raoultella ornithinolytica; assay type: cell-based; conditions: N 1
Experimental: MIC values were determined by broth microdilution against clinical isolates and resistant isolates from a wide range of bacterial species, including isolates from the CDC Antibiotic Resistance bank, including the GN ESKAPE pathogens and E. coli, including carbapenem-resistant Enterobacteriaciae, Acinetobacter, and Pseudomonas.

P. aeruginosa = experiment: Checkerboard synergy assay (FICI) with antibiotics against P. aeruginosa; assay type: cell-based, Pseudomonas aeruginosa; design: key to average FICI score with amikacin: FICI: ≤0.5 synergy, >0.5–≤1 additive, >1 indifferent; conditions: for MIC (dual agent): GN370 + meropenem
In short: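 Checkerboard of 2-fold antibiotic dilutions crossed with GN370 (lysin peptide), bacteria at 1×10^5 CFU/ml in CAA, with or without human serum or pulmonary surfactant. ΣFICmin taken as FICI: ≤0.5 synergy, >0.5–≤1 additive, >1 indifferent.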

B. cenocepacia = experiment: Checkerboard synergy assay with meropenem against B. cenocepacia; assay type: cell-based, Burkholderia cenocepacia; conditions: for MIC (dual agent): GN370 + meropenem; for FICmin / FICmin interpretation: GN370 with meropenem
Source text: In some embodiments, the Chp peptides disclosed herein or active fragments thereof reduce the minimum inhibitory concentration (MIC) of an antibiotic in the presence and/or absence of human serum, pulmonary surfactant, and/or sputum, including human sputum and human sputum from a cystic fibrosis patient. Any known method to assess MIC may be used. In some embodiments, a checkerboard assay is used to determine the effect of a Chp peptide or active fragment thereof on antibiotic concentration. The checkerboard assay is based on a modification of the CLSI method for MIC determination by broth microdilution (See Clinical and Laboratory Standards Institute (CLSI), CLSI. 2015. Methods for Dilution Antimicrobial Susceptibility Tests for Bacteria That Grow Aerobically; Approved Standard-10th Edition. Clinical and Laboratory Standards Institute, Wayne, PA, which is herein incorporated by reference in its entirety and Ceri et al. 1999. J. Clin. Microbiol. 37: 1771-1776, which is also herein incorporated by reference in its entirety).
Checkerboards are constructed by first preparing columns of e.g., a 96-well polypropylene microtiter plate, wherein each well has the same amount of antibiotic diluted 2-fold along the horizontal axis. […] The Chp peptide or active fragment thereof and antibiotic dilutions are then combined, so that each column has a constant amount of antibiotic and doubling dilutions of Chp peptide, while each row has a constant amount of Chp peptide and doubling dilutions of antibiotic. Each well thus has a unique combination of Chp peptide and antibiotic. Bacteria are added to the drug combinations at concentrations of 1×10^5 GFU/ml in CAA, for example, with or without human serum or pulmonary surfactant. […] Summation fractional inhibitory concentrations (ΣFICs) are calculated for each drug and the minimum ΣFIC value (ΣFICmin) is used to determine the effect of the Chp peptide/antibiotic combination.
The synergy of GN370 with meropenem was evaluated against 3 different strains of P. aeruginosa and three different strains of B. cenocepacia.

[2] = P. aeruginosa (ATCC 27853, CFS 1766)
[3] = P. aeruginosa (ATCC 27853, CFS 1766), GN370 with meropenem
[4] = P. aeruginosa (CFS 2045), GN370 with meropenem
[5] = P. aeruginosa (CFS 2061), GN370 with meropenem
[6] = P. aeruginosa strain AR-769, GN370 with Amikacin
[7] = P. aeruginosa strain AR-769, GN370 with Cefepime
[8] = P. aeruginosa strain AR-769, GN370 with Ceftazidime
[9] = P. aeruginosa strain AR-769, GN370 with Ciprofloxacin
[10] = P. aeruginosa strain AR-769, GN370 with Colistin
[11] = P. aeruginosa strain AR-769, GN370 with Meropenem
[12] = P. aeruginosa strain AR-769, GN370 with Tobramycin
[13] = P. aeruginosa strain AR-769, in combination with Amikacin
[14] = P. aeruginosa strain AR-769, in combination with Cefepime
[15] = P. aeruginosa strain AR-769, in combination with Ceftazidime
[16] = P. aeruginosa strain AR-769, in combination with Ciprofloxacin
[17] = P. aeruginosa strain AR-769, in combination with Meropenem
[18] = P. aeruginosa strain AR-769, in combination with Tobramycin

B1: GN370: lysin-AMP construct, SEQ ID NO: 149: MIDR, FIRL and NPTH moieties N-terminal to GN202 lysin (protein)
chain: MIDRFIRLNPTHGPRRPRRPGRRAPVRTSQRGIDLIKSFEGLRLSAYQDSVGVWTIGYGTTRGVTRYMTITVEQAERMLSNDIQRFEPELDRLAKVPLNQNQWDALMSFVYNLGAANLASSTLLDLLNKGDYQGAADQFPHWVNAGGKRLDGLVKRRAAERALFLEPLS
modifications: GN370 lysin
MIC Range [1]: 0.25 µg/mL | GN370 FIC (P. aeruginosa): 0.125 | synergy with meropenem (P. aeruginosa; 3 strains of P. aeruginosa): synergizes with meropenem against P. aeruginosa | MIC (alone) (P. aeruginosa; [2]): 1 µg/mL | MIC (dual agent) (P. aeruginosa; [2]): 0.06 µg/mL | FICmin (P. aeruginosa; [3]): 0.091 | FICmin interpretation (P. aeruginosa; [3]): (Synergy) | MIC (alone) (P. aeruginosa; P. aeruginosa (CFS 2045)): 2 µg/mL | MIC (dual agent) (P. aeruginosa; P. aeruginosa (CFS 2045)): 0.06 µg/mL | FICmin (P. aeruginosa; [4]): 0.155 | FICmin interpretation (P. aeruginosa; [4]): (Synergy) | MIC (alone) (P. aeruginosa; P. aeruginosa (CFS 2061)): 4 µg/mL | MIC (dual agent) (P. aeruginosa; P. aeruginosa (CFS 2061)): 0.25 µg/mL | FICmin (P. aeruginosa; [5]): 0.125 | FICmin interpretation (P. aeruginosa; [5]): (Synergy) | GN370 MIC (single agent) (P. aeruginosa; P. aeruginosa strain AR-769): 2 µg/mL | FICave (P. aeruginosa; [6]): 0.323 | FICmin (P. aeruginosa; [6]): 0.281 | FICave (P. aeruginosa; [7]): 0.542 and 0.419 | FICmin (P. aeruginosa; [7]): 0.5 and 0.375 | FICave (P. aeruginosa; [8]): 1.073 | FICmin (P. aeruginosa; [8]): 1.031 | FICave (P. aeruginosa; [9]): 0.543 and 0.417 | FICmin (P. aeruginosa; [9]): 0.5 and 0.375 | FICave (P. aeruginosa; [10]): 0.292 | FICmin (P. aeruginosa; [10]): 0.25 | FICave (P. aeruginosa; [11]): 0.422 and 0.419 | FICmin (P. aeruginosa; [11]): 0.375 | FICave (P. aeruginosa; [12]): 0.418 | FICmin (P. aeruginosa; [12]): 0.375 | average FICI score with amikacin (P. aeruginosa; P. aeruginosa strain AR-769, checkerboard): 0.323 | GN370 FIC (P. aeruginosa; [13]): 0.031 | GN370 MIC (combo) (P. aeruginosa; [13]): 0.063 µg/mL | GN370 FIC (P. aeruginosa; [14]): 0.25 | GN370 MIC (combo) (P. aeruginosa; [14]): 0.5 µg/mL | GN370 FIC (P. aeruginosa; [15]): 0.031 | GN370 MIC (combo) (P. aeruginosa; [15]): 0.063 µg/mL | GN370 FIC (P. aeruginosa; [16]): 0.25 | GN370 MIC (combo) (P. aeruginosa; [16]): 0.5 µg/mL | GN370 MIC (combo) (P. aeruginosa; P. aeruginosa strain AR-769, in combination with Colistin): 0.25 µg/mL | GN370 FIC (P. aeruginosa; [17]): 0.25 | GN370 MIC (combo) (P. aeruginosa; [17]): 0.5 µg/mL | GN370 FIC (P. aeruginosa; [18]): 0.25 | GN370 MIC (combo) (P. aeruginosa; [18]): 0.5 µg/mL | MIC (alone) (B. cenocepacia; B. cenocepacia (CFS 2135)): 128 µg/mL | MIC (dual agent) (B. cenocepacia; B. cenocepacia (CFS 2135)): 64 µg/mL | FICmin (B. cenocepacia; B. cenocepacia (CFS 2135)): 1.5 | FICmin interpretation (B. cenocepacia; B. cenocepacia (CFS 2135)): (Indifferent) | MIC (alone) (B. cenocepacia; B. cenocepacia (CFS 2138)): 256 µg/mL | MIC (dual agent) (B. cenocepacia; B. cenocepacia (CFS 2138)): 128 µg/mL | FICmin (B. cenocepacia; B. cenocepacia (CFS 2138)): 1.5 | FICmin interpretation (B. cenocepacia; B. cenocepacia (CFS 2138)): (Indifferent) | MIC (alone) (B. cenocepacia; B. cenocepacia (CFS 2142)): 256 µg/mL | MIC (dual agent) (B. cenocepacia; B. cenocepacia (CFS 2142)): 128 µg/mL | FICmin (B. cenocepacia; B. cenocepacia (CFS 2142)): 1 | FICmin interpretation (B. cenocepacia; B. cenocepacia (CFS 2142)): (Additive) | synergy with meropenem (B. cenocepacia; three strains of B. cenocepacia): not against B. cenocepacia

From patent US20240181022A1, “AMURINS LYSINS, AND LYSIN-ANTIMICROBIAL PEPTIDE (AMP) CONSTRUCTS ACTIVE AGAINST GRAM-NEGATIVE BACTERIA” (priority 2021, published 2024)
